Assay results from patent publication US20160144003A1 (Scripps Research, published 2016).

Tests used:
[1] = target: T1, GFP-neuropilin (NRP1) fusion protein on transfected cells; experiment: cell counts of confocal images, N2a cells expressing GFP-NRP1 incubated with GlyRS
T1 construct: whole, on cells; also called GFP-NRP1; NRP1-EGFP
Experimental: Confocal microscopy analysis was performed to assess the influence of GlyRS and CMT-associated GlyRS mutants on neuropilin-mediated neurite outgrowth. Mouse neuroblastoma N2a cells were transfected with either control pEGFP or NRP1-EGFP. After 24 hours, the cells were plated onto Fibronectin coated coverslips. Then N2a cells were then incubated with or without 200 nM wild-type GlyRS or CMT-associated GlyRS mutants (L129P, G240R, G526R) at 4° C. for 1 hour. Cells were then washed three times with DPBS buffer and fixed with 4% formaldehyde. The coverslips were mounted with Prolong Gold Antifade Reagent with DAPI (invitrogen) at 25° C. for overnight. Images were then taken using the Bio-Rad (Zeiss) Radiance 2100 Rainbow laser scanning confocal microscope (LSCM).

[2] = target: the molecule itself; experiment: sedimentation equilibrium AUC, monomer-dimer self-association
Experimental: FIGS. 8A-8F show sedimentation equilibrium analysis of WT and CMT-causing mutant human GlyRS proteins. Three cells containing different concentrations of each protein sample were centrifuged at 9000 rpm (solid curved line), 14000 rpm (mixed-dash curved line), and 19000 rpm (dash curved line). Absorbance data for each cell was collected at 280 nm and 230 nm wavelength. The meniscus (vertical dot-dash line) in each cell was set manually, while the bottom (vertical dash line) was allowed to float. Data within the fit limits (vertical solid lines) was globally fitted to the monomer-dimer self-association model in SEDPHAT. Data beyond approximately 1.5 absorbance was omitted in case of non-linearity of the detection instrumentation. The fits for the 9000, 14000, and 19000 rpm data are represented by the solid, mixed dash, and dash lines respectively.
WT and mutant GlyRSs were cloned and expressed as described (see Xie et al., Acta Crystallogr Sect F Struct Biol Cryst Commun 62:1243-1246, 2006), and purified to more than 99% homogeneity in three steps: nickel affinity, Mono Q and size exclusion chromatography. Sedimentation equilibrium experiments were performed in a Beckman Optima XL-1 analytical ultracentrifuge with integrated optical systems. All protein samples (0.5 μM, 1.25 μM, 2.5 μM) were prepared in DPBS buffer (2.67 mM potassium chloride, 1.47 mM potassium phosphate monobasic, 137.93 mM sodium chloride and 8.06 mM sodium phosphate dibasic, pH 7.2) and purified by size exclusion chromatography immediately prior to centrifugation. The buffer density and viscosity, and the protein partial specific volume were determined by SEDPHAT (see Lebowitz et al., Protein Sci. 11:2067-2079, 2002). Samples (180 μL) in two-channel cells were centrifuged in a Beckman An-60 Ti rotor at speeds of […] at 4° C. Equilibrium was reached after 36 hours for each speed and verified by comparison with a second scan taken every 6 hours. Data was collected at 280 nm and […]. Data sets consisting of 18 curves per protein (3 concentrations, 3 rotor speeds and 2 wavelengths each) were analyzed by global fitting to the monomer-dimer self-association model using the program SEDPHAT (Id.).

T1 sequence (O14786 22-923): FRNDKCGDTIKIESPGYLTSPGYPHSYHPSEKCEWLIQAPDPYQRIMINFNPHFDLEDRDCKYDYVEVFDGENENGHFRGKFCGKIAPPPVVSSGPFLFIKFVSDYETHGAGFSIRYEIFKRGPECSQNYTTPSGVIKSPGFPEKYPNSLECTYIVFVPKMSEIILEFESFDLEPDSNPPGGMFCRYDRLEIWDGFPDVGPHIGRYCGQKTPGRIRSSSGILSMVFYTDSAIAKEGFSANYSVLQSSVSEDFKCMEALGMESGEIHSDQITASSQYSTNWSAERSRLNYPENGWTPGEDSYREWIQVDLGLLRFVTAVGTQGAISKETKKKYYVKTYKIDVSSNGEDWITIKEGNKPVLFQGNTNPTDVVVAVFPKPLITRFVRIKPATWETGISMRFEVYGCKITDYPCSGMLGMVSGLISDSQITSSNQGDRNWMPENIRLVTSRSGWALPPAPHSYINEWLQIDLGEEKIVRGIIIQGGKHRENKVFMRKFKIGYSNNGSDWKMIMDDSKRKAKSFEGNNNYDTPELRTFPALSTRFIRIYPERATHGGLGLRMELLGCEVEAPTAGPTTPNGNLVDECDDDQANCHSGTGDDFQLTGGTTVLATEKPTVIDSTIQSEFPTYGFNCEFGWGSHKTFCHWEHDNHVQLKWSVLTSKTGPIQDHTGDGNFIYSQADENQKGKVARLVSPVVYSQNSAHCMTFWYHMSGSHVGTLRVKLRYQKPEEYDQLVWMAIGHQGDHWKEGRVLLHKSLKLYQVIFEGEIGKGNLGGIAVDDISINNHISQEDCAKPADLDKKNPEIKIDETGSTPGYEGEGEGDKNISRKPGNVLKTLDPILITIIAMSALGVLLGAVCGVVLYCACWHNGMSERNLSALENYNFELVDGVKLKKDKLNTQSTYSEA

Row | Cell number % [1] [%] | Binder | Kd [2] [nM] | fold decrease in Kd of dimerization relative to WT GlyRS [2] [fold] | fold increase in Kd of dimerization relative to WT GlyRS [2] [fold]
1 | 8.6 | wild-type human glycyl-tRNA synthetase (GlyRS) (enzyme, Used as a GlyRS-His fusion protein in the neuropilin assays; also called WT GlyRS; WT; not shown: His tag) MDGAGAEEVLAPLRLAVRQQGDLVRKLKEDKAPQVDVDKAVAELKARKRVLEAKELALQPKDDIVDRAKMEDTLKRRFFYDQAFAIYGGVSGLYDFGPVGCALKNNIIQTWRQHFIQEEQILEIDCTMLTPEPVLKTSGHVDKFADFMVKDVKNGECFRADHLLKAHLQKLMSDKKCSVEKKSEMESVLAQLDNYGQQELADLFVNYNVKSPITGNDLSPPVSFNLMFKTFIGPGGNMPGYLRPETAQGIFLNFKRLLEFNQGKLPFAAAQIGNSFRNEISPRSGLIRVREFTMAEIEHFVDPSEKDHPKFQNVADLHLYLYSAKAQVSGQSARKMRLGDAVEQGVINNTVLGYFIGRIYLYLTKVGISPDKLRFRQHMENEMAHYACDCWDAESKTSYGWIEIVGCADRSCYDLSCHARATKVPLVAEKPLKEPKTVNVVQFEPSKGAIGKAYKKDAKLVMEYLAICDECYITEMEMLLNEKGEFTIETEGKTFQLTKDMINVKRFQKTLYVEEVVPNVIEPSFGLGRIMYTVFEHTFHVREGDEQRTFFSFPAVVAPFKCSVLPLSQNQEFMPFVKELSEALTRHGVSHKVDDSSGSIGRRYARTDEIGVAFGVTIDFDTVNKTPHTATLRDRDSMRQIRAEISELPSIVQDLANGNITWADVEARYPLFEGQETGKKETIEE | 560 |  | 
2 | 20.7 | human GlyRS G526R mutant (enzyme, GlyRS-His fusion protein in the pull-down assay; also called G526R GlyRS; not shown: His tag) MDGAGAEEVLAPLRLAVRQQGDLVRKLKEDKAPQVDVDKAVAELKARKRVLEAKELALQPKDDIVDRAKMEDTLKRRFFYDQAFAIYGGVSGLYDFGPVGCALKNNIIQTWRQHFIQEEQILEIDCTMLTPEPVLKTSGHVDKFADFMVKDVKNGECFRADHLLKAHLQKLMSDKKCSVEKKSEMESVLAQLDNYGQQELADLFVNYNVKSPITGNDLSPPVSFNLMFKTFIGPGGNMPGYLRPETAQGIFLNFKRLLEFNQGKLPFAAAQIGNSFRNEISPRSGLIRVREFTMAEIEHFVDPSEKDHPKFQNVADLHLYLYSAKAQVSGQSARKMRLGDAVEQGVINNTVLGYFIGRIYLYLTKVGISPDKLRFRQHMENEMAHYACDCWDAESKTSYGWIEIVGCADRSCYDLSCHARATKVPLVAEKPLKEPKTVNVVQFEPSKGAIGKAYKKDAKLVMEYLAICDECYITEMEMLLNEKGEFTIETEGKTFQLTKDMINVKRFQKTLYVEEVVPNVIEPSFRLGRIMYTVFEHTFHVREGDEQRTFFSFPAVVAPFKCSVLPLSQNQEFMPFVKELSEALTRHGVSHKVDDSSGSIGRRYARTDEIGVAFGVTIDFDTVNKTPHTATLRDRDSMRQIRAEISELPSIVQDLANGNITWADVEARYPLFEGQETGKKETIEE |  | 3 to 4 | 
3 |  | human GlyRS S581L mutant (enzyme, also called S581L GlyRS; not shown: His tag) MDGAGAEEVLAPLRLAVRQQGDLVRKLKEDKAPQVDVDKAVAELKARKRVLEAKELALQPKDDIVDRAKMEDTLKRRFFYDQAFAIYGGVSGLYDFGPVGCALKNNIIQTWRQHFIQEEQILEIDCTMLTPEPVLKTSGHVDKFADFMVKDVKNGECFRADHLLKAHLQKLMSDKKCSVEKKSEMESVLAQLDNYGQQELADLFVNYNVKSPITGNDLSPPVSFNLMFKTFIGPGGNMPGYLRPETAQGIFLNFKRLLEFNQGKLPFAAAQIGNSFRNEISPRSGLIRVREFTMAEIEHFVDPSEKDHPKFQNVADLHLYLYSAKAQVSGQSARKMRLGDAVEQGVINNTVLGYFIGRIYLYLTKVGISPDKLRFRQHMENEMAHYACDCWDAESKTSYGWIEIVGCADRSCYDLSCHARATKVPLVAEKPLKEPKTVNVVQFEPSKGAIGKAYKKDAKLVMEYLAICDECYITEMEMLLNEKGEFTIETEGKTFQLTKDMINVKRFQKTLYVEEVVPNVIEPSFGLGRIMYTVFEHTFHVREGDEQRTFFSFPAVVAPFKCSVLPLSQNQEFMPFVKELLEALTRHGVSHKVDDSSGSIGRRYARTDEIGVAFGVTIDFDTVNKTPHTATLRDRDSMRQIRAEISELPSIVQDLANGNITWADVEARYPLFEGQETGKKETIEE | 190 | 3 to 4 | 
4 | 37.7 | human GlyRS L129P mutant (enzyme, also called L129P GlyRS; L129P-His; not shown: His tag) MDGAGAEEVLAPLRLAVRQQGDLVRKLKEDKAPQVDVDKAVAELKARKRVLEAKELALQPKDDIVDRAKMEDTLKRRFFYDQAFAIYGGVSGLYDFGPVGCALKNNIIQTWRQHFIQEEQILEIDCTMPTPEPVLKTSGHVDKFADFMVKDVKNGECFRADHLLKAHLQKLMSDKKCSVEKKSEMESVLAQLDNYGQQELADLFVNYNVKSPITGNDLSPPVSFNLMFKTFIGPGGNMPGYLRPETAQGIFLNFKRLLEFNQGKLPFAAAQIGNSFRNEISPRSGLIRVREFTMAEIEHFVDPSEKDHPKFQNVADLHLYLYSAKAQVSGQSARKMRLGDAVEQGVINNTVLGYFIGRIYLYLTKVGISPDKLRFRQHMENEMAHYACDCWDAESKTSYGWIEIVGCADRSCYDLSCHARATKVPLVAEKPLKEPKTVNVVQFEPSKGAIGKAYKKDAKLVMEYLAICDECYITEMEMLLNEKGEFTIETEGKTFQLTKDMINVKRFQKTLYVEEVVPNVIEPSFGLGRIMYTVFEHTFHVREGDEQRTFFSFPAVVAPFKCSVLPLSQNQEFMPFVKELSEALTRHGVSHKVDDSSGSIGRRYARTDEIGVAFGVTIDFDTVNKTPHTATLRDRDSMRQIRAEISELPSIVQDLANGNITWADVEARYPLFEGQETGKKETIEE | 41000 |  | 73
5 |  | human GlyRS G598A mutant (enzyme, Only in the dimerization measurement (sedimentation equilibrium); also called G598A GlyRS; not shown: the tag is not described) MDGAGAEEVLAPLRLAVRQQGDLVRKLKEDKAPQVDVDKAVAELKARKRVLEAKELALQPKDDIVDRAKMEDTLKRRFFYDQAFAIYGGVSGLYDFGPVGCALKNNIIQTWRQHFIQEEQILEIDCTMLTPEPVLKTSGHVDKFADFMVKDVKNGECFRADHLLKAHLQKLMSDKKCSVEKKSEMESVLAQLDNYGQQELADLFVNYNVKSPITGNDLSPPVSFNLMFKTFIGPGGNMPGYLRPETAQGIFLNFKRLLEFNQGKLPFAAAQIGNSFRNEISPRSGLIRVREFTMAEIEHFVDPSEKDHPKFQNVADLHLYLYSAKAQVSGQSARKMRLGDAVEQGVINNTVLGYFIGRIYLYLTKVGISPDKLRFRQHMENEMAHYACDCWDAESKTSYGWIEIVGCADRSCYDLSCHARATKVPLVAEKPLKEPKTVNVVQFEPSKGAIGKAYKKDAKLVMEYLAICDECYITEMEMLLNEKGEFTIETEGKTFQLTKDMINVKRFQKTLYVEEVVPNVIEPSFGLGRIMYTVFEHTFHVREGDEQRTFFSFPAVVAPFKCSVLPLSQNQEFMPFVKELSEALTRHGVSHKVDDSSASIGRRYARTDEIGVAFGVTIDFDTVNKTPHTATLRDRDSMRQIRAEISELPSIVQDLANGNITWADVEARYPLFEGQETGKKETIEE | 390 |  | 
6 | 42 | human GlyRS G240R mutant (enzyme, GlyRS-His fusion protein in the pull-down and cell assays; also called G240R GlyRS; not shown: His tag) MDGAGAEEVLAPLRLAVRQQGDLVRKLKEDKAPQVDVDKAVAELKARKRVLEAKELALQPKDDIVDRAKMEDTLKRRFFYDQAFAIYGGVSGLYDFGPVGCALKNNIIQTWRQHFIQEEQILEIDCTMLTPEPVLKTSGHVDKFADFMVKDVKNGECFRADHLLKAHLQKLMSDKKCSVEKKSEMESVLAQLDNYGQQELADLFVNYNVKSPITGNDLSPPVSFNLMFKTFIGPGGNMPRYLRPETAQGIFLNFKRLLEFNQGKLPFAAAQIGNSFRNEISPRSGLIRVREFTMAEIEHFVDPSEKDHPKFQNVADLHLYLYSAKAQVSGQSARKMRLGDAVEQGVINNTVLGYFIGRIYLYLTKVGISPDKLRFRQHMENEMAHYACDCWDAESKTSYGWIEIVGCADRSCYDLSCHARATKVPLVAEKPLKEPKTVNVVQFEPSKGAIGKAYKKDAKLVMEYLAICDECYITEMEMLLNEKGEFTIETEGKTFQLTKDMINVKRFQKTLYVEEVVPNVIEPSFGLGRIMYTVFEHTFHVREGDEQRTFFSFPAVVAPFKCSVLPLSQNQEFMPFVKELSEALTRHGVSHKVDDSSGSIGRRYARTDEIGVAFGVTIDFDTVNKTPHTATLRDRDSMRQIRAEISELPSIVQDLANGNITWADVEARYPLFEGQETGKKETIEE | 11000 |  | 20
